Blank lines part the entries; values can stand above or below the binder they belong to.
Legend:
Recombinant Human IL-1β [1] = target: T1, Recombinant Human IL-1β (human, UniProt P01584 117-269); assay: Biacore SPR; N-terminal VD
T1 construct: bought reagent; also called IL-1B
Summary of the method: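 SPR, 25° C, HBS-EP (10 mM HEPES pH 7.4, 150 mM NaCl, 3 mM EDTA, 0.005% P20). Capture via anti-mouse IgG Fcγ chip; analyte 10−200 nM at 25 μl/min. 1:1 Langmuir global fit; KD = koff/kon.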

Recombinant Human IL-17 = target: T2, Recombinant Human IL-17 (human, UniProt Q16552 20-155, limits assumed); assay: cell-based or functional assay
T2 sequence (looked up): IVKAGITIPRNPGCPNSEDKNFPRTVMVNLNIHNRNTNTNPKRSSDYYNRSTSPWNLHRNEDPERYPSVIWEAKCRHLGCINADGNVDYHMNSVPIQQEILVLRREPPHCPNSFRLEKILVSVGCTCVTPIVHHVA

Recombinant Human IL-1β [2] = target: Recombinant Human IL-1β (human, UniProt P01584 117-269); assay: cell-based or functional assay

B2: AB273 (antibody, human IgG1, kappa, V domains shown)
VH: EVQLVQSGAEVKKPGSSVKVSCKASGYTFTDYEIHWVRQAPGQGLEWMGVNDPESGGTFYNQKFDGRVTLTADESTSTAYMELSSLRSEDTAVYYCTRYSKWDSFDGMDYWGQGTTVTVSS
VL: DIQMTQSPSSLSASVGDRVTITCRASSGIISYIDWFQQKPGKAPKRLIYATFDLASGVPSRFSGSGSGTDYTLTISSLQPEDFATYYCRQVGSYPETFGQGTKLEIKR
- IL-17 Neutralization Assay EC50 (Recombinant Human IL-17): 0.0161 nM

B3: DVD1263 (bispecific antibody, human IgG1, kappa)
heavy: not shown
light: DIQMTQSPSSLSASVGDRVTITCRASSGIISYIDWFQQKPGKAPKRLIYATFDLASGVPSRFSGSGSGTDYTLTISSLQPEDFATYYCRQVGSYPETFGQGTKLEIKRTVAAPDIQMTQSPSSLSASVGDRVTITCRASGNIHNYLTWYQQTPGKAPKLLIYNAKTLADGVPSRFSGSGSGTDYTFTISSLQPEDIATYYCQHFWSIPYTFGQGTKLQITRTVAAPSVFIFPPSDEQLKSGTASVVCLLNNFYPREAKVQWKVDNALQSGNSQESVTEQDSKDSTYSLSSTLTLSKADYEKHKVYACEVTHQGLSSPVTKSFNRGEC
- C-Terminal VD IL-1β Neutralization Assay EC50 (Recombinant Human IL-1β [2]): 20 nM
- N-terminal VD IL-17 Neutralization Assay EC50 (Recombinant Human IL-17): 0.0052 nM

B5: DVD1262 (bispecific antibody, human IgG1, kappa)
heavy: not shown
light: DIQMTQSPSSLSASVGDRVTITCRASGNIHNYLTWYQQTPGKAPKLLIYNAKTLADGVPSRFSGSGSGTDYTFTISSLQPEDIATYYCQHFWSIPYTFGQGTKLQITRTVAAPDIQMTQSPSSLSASVGDRVTITCRASSGIISYIDWFQQKPGKAPKRLIYATFDLASGVPSRFSGSGSGTDYTLTISSLQPEDFATYYCRQVGSYPETFGQGTKLEIKRTVAAPSVFIFPPSDEQLKSGTASVVCLLNNFYPREAKVQWKVDNALQSGNSQESVTEQDSKDSTYSLSSTLTLSKADYEKHKVYACEVTHQGLSSPVTKSFNRGEC
- N-Terminal VD IL-1β Neutralization Assay EC50 (Recombinant Human IL-1β [2]): 0.0164 nM
- C-terminal VD IL-17 Neutralization Assay EC50 (Recombinant Human IL-17): 0.0162 nM

B6: DVD1264 (bispecific antibody, human IgG1, kappa)
heavy: not shown
light: B5 light
- N-Terminal VD IL-1β Neutralization Assay EC50 (Recombinant Human IL-1β [2]): 0.12 nM
- C-terminal VD IL-17 Neutralization Assay EC50 (Recombinant Human IL-17): 0.0084 nM

More lines, now with the values ahead:

- Kd (Recombinant Human IL-1β [1]): 0.086 nM
- koff (Recombinant Human IL-1β [1]): 0.00065 s⁻¹
- kon (Recombinant Human IL-1β [1]): 7.5e+06 M⁻¹ s⁻¹
B1: DVD1290 (bispecific antibody, human IgG1, kappa)
heavy: not shown
light: ETTVTQSPSSLSASVGDRVTITCITSTDIDVDMNWYQQKPGKPPKLLISQGNTLRPGVPSRFSSSGSGTDFTFTISSLQPEDFATYYCLQSDNLPLTFGQGTKLEIKRTVAAPEIVLTQSPDFQSVTPKEKVTITCRASQNIGSELHWYQQKPDQSPKLLIKYASHSISGVPSRFSGSGSGTDFTLTINGLEAEDAATYYCHQSDTLPHTFGQGTKVDIKRTVAAPSVFIFPPSDEQLKSGTASVVCLLNNFYPREAKVQWKVDNALQSGNSQESVTEQDSKDSTYSLSSTLTLSKADYEKHKVYACEVTHQGLSSPVTKSFNRGEC
notes: DVD-Ig, outer AB272, inner AB275, linker set 1; V1 wt hIgG1, V2 kappa; also called DVD1290H; DVD1290L

- C-Terminal VD IL-1β Neutralization Assay EC50 (Recombinant Human IL-1β [2]): 0.925 nM
- N-terminal VD IL-17 Neutralization Assay EC50 (Recombinant Human IL-17): 0.0028 nM
B4: DVD1265 (bispecific antibody, human IgG1, kappa)
heavy: not shown
light: B3 light

From patent US20120034160A1 (AbbVie / Abbott, published 2012)
